Data taken from the Human Domainome abundance scans (Beltran et al. 2025).
± gives the uncertainty stated by the source.

Assay: abundance fitness (aPCA) (normalised: wild type 0, dead -1); higher = more abundant; growth selection in yeast, the domain comes from the species named
Conditions: Homo sapiens

Q: With “Scaffold attachment factor B2 K62S, Q14151” as the substance, how does the abundance fitness read?
A: The abundance fitness was -0.125 ± 0.095.

Q: Which abundance fitness does the source give for “Scaffold attachment factor B2 K62V, Q14151” here?
A: Its abundance fitness is -0.163 ± 0.1.

Q: With “Scaffold attachment factor B2 K62W, Q14151” as the substance, how does the abundance fitness read?
A: Its abundance fitness is -0.375 ± 0.12.

Q: For “Scaffold attachment factor B2 K62Y, Q14151”, which abundance fitness is on record?
A: The abundance fitness was -0.447 ± 0.37.

Q: For “Scaffold attachment factor B2 K65A, Q14151”, which abundance fitness is on record?
A: The abundance fitness was -0.138 ± 0.12.

Q: Which abundance fitness does the source give for “Scaffold attachment factor B2 K65C, Q14151” here?
A: Its abundance fitness is -0.145 ± 0.12.

Q: With “Scaffold attachment factor B2 K65D, Q14151” as the substance, how does the abundance fitness read?
A: The abundance fitness was 0.036 ± 0.14.

Q: With “Scaffold attachment factor B2 K65F, Q14151” as the substance, how does the abundance fitness read?
A: Its abundance fitness is -0.396 ± 0.22.

Q: For “Scaffold attachment factor B2 K65H, Q14151”, which abundance fitness is on record?
A: The abundance fitness was 0.463 ± 0.23.

Q: For “Scaffold attachment factor B2 K65I, Q14151”, which abundance fitness is on record?
A: Its abundance fitness is -0.241 ± 0.14.

Q: Which abundance fitness does the source give for “Scaffold attachment factor B2 K65L, Q14151” here?
A: Its abundance fitness is -0.205 ± 0.1.

Q: Which abundance fitness does the source give for “Scaffold attachment factor B2 K65M, Q14151” here?
A: The abundance fitness was -0.181 ± 0.11.

Q: With “Scaffold attachment factor B2 K65N, Q14151” as the substance, how does the abundance fitness read?
A: Its abundance fitness is -0.148 ± 0.37.

Q: Which abundance fitness does the source give for “Scaffold attachment factor B2 K65P, Q14151” here?
A: The abundance fitness was -0.054 ± 0.18.

Q: For “Scaffold attachment factor B2 K65Q, Q14151”, which abundance fitness is on record?
A: Its abundance fitness is -0.309 ± 0.28.

Q: With “Scaffold attachment factor B2 K65R, Q14151” as the substance, how does the abundance fitness read?
A: Its abundance fitness is -0.136 ± 0.099.

Q: With “Scaffold attachment factor B2 K65T, Q14151” as the substance, how does the abundance fitness read?
A: The abundance fitness was 0.044 ± 0.17.

Q: With “Scaffold attachment factor B2 K65V, Q14151” as the substance, how does the abundance fitness read?
A: The abundance fitness was -0.111 ± 0.086.

Q: Which abundance fitness does the source give for “Scaffold attachment factor B2 K65W, Q14151” here?
A: Its abundance fitness is -0.269 ± 0.12.

Q: For “Scaffold attachment factor B2 K65Y, Q14151”, which abundance fitness is on record?
A: Its abundance fitness is -0.35 ± 0.16.

Q: For “Scaffold attachment factor B2 L30A, Q14151”, which abundance fitness is on record?
A: The abundance fitness was -0.28 ± 0.099.

Q: Which abundance fitness does the source give for “Scaffold attachment factor B2 L30C, Q14151” here?
A: The abundance fitness was -0.708 ± 0.094.

Q: Which abundance fitness does the source give for “Scaffold attachment factor B2 L30D, Q14151” here?
A: Its abundance fitness is -0.086 ± 0.15.

Q: With “Scaffold attachment factor B2 L30E, Q14151” as the substance, how does the abundance fitness read?
A: Its abundance fitness is -0.232 ± 0.094.

Q: Which abundance fitness does the source give for “Scaffold attachment factor B2 L30F, Q14151” here?
A: The abundance fitness was -0.3 ± 0.12.

Q: For “Scaffold attachment factor B2 L30G, Q14151”, which abundance fitness is on record?
A: Its abundance fitness is -0.281 ± 0.084.

Q: With “Scaffold attachment factor B2 L30I, Q14151” as the substance, how does the abundance fitness read?
A: Its abundance fitness is 0.038 ± 0.14.

Q: With “Scaffold attachment factor B2 L30K, Q14151” as the substance, how does the abundance fitness read?
A: The abundance fitness was -0.461 ± 0.12.

Q: Which abundance fitness does the source give for “Scaffold attachment factor B2 L30M, Q14151” here?
A: Its abundance fitness is -0.036 ± 0.12.

Q: Which abundance fitness does the source give for “Scaffold attachment factor B2 L30P, Q14151” here?
A: Its abundance fitness is -0.451 ± 0.14.

Q: Which abundance fitness does the source give for “Scaffold attachment factor B2 L30Q, Q14151” here?
A: The abundance fitness was -0.284 ± 0.14.

Q: Which abundance fitness does the source give for “Scaffold attachment factor B2 L30R, Q14151” here?
A: Its abundance fitness is -0.272 ± 0.072.

Q: With “Scaffold attachment factor B2 L30S, Q14151” as the substance, how does the abundance fitness read?
A: The abundance fitness was -0.233 ± 0.095.

Q: With “Scaffold attachment factor B2 L30T, Q14151” as the substance, how does the abundance fitness read?
A: The abundance fitness was -0.345 ± 0.14.

Q: Which abundance fitness does the source give for “Scaffold attachment factor B2 L30W, Q14151” here?
A: Its abundance fitness is -0.771 ± 0.076.

Q: Which abundance fitness does the source give for “Scaffold attachment factor B2 L30Y, Q14151” here?
A: Its abundance fitness is -0.086 ± 0.12.

Q: With “Scaffold attachment factor B2 L33C, Q14151” as the substance, how does the abundance fitness read?
A: Its abundance fitness is -0.758 ± 0.12.

Q: Which abundance fitness does the source give for “Scaffold attachment factor B2 L33D, Q14151” here?
A: Its abundance fitness is -0.307 ± 0.12.

Q: Which abundance fitness does the source give for “Scaffold attachment factor B2 L33E, Q14151” here?
A: Its abundance fitness is -0.072 ± 0.093.

Q: Which abundance fitness does the source give for “Scaffold attachment factor B2 L33F, Q14151” here?
A: Its abundance fitness is -0.106 ± 0.23.

Q: With “Scaffold attachment factor B2 L33G, Q14151” as the substance, how does the abundance fitness read?
A: The abundance fitness was -0.237 ± 0.076.

Q: For “Scaffold attachment factor B2 L33H, Q14151”, which abundance fitness is on record?
A: The abundance fitness was -0.46 ± 0.25.

Q: With “Scaffold attachment factor B2 L33K, Q14151” as the substance, how does the abundance fitness read?
A: The abundance fitness was -0.319 ± 0.11.

Q: For “Scaffold attachment factor B2 L33M, Q14151”, which abundance fitness is on record?
A: The abundance fitness was 0.182 ± 0.11.

Q: For “Scaffold attachment factor B2 L33N, Q14151”, which abundance fitness is on record?
A: Its abundance fitness is -0.301 ± 0.3.

Q: With “Scaffold attachment factor B2 L33Q, Q14151” as the substance, how does the abundance fitness read?
A: The abundance fitness was -0.24 ± 0.096.

Q: For “Scaffold attachment factor B2 L33R, Q14151”, which abundance fitness is on record?
A: The abundance fitness was -0.331 ± 0.075.

Q: For “Scaffold attachment factor B2 L33S, Q14151”, which abundance fitness is on record?
A: Its abundance fitness is -0.138 ± 0.097.

Q: Which abundance fitness does the source give for “Scaffold attachment factor B2 L33T, Q14151” here?
A: Its abundance fitness is -0.268 ± 0.1.

Q: With “Scaffold attachment factor B2 L33V, Q14151” as the substance, how does the abundance fitness read?
A: The abundance fitness was -0.204 ± 0.072.

Q: Which abundance fitness does the source give for “Scaffold attachment factor B2 L33W, Q14151” here?
A: The abundance fitness was -0.103 ± 0.096.

Q: Which abundance fitness does the source give for “Scaffold attachment factor B2 L33Y, Q14151” here?
A: The abundance fitness was -0.33 ± 0.32.

Q: With “Scaffold attachment factor B2 L38A, Q14151” as the substance, how does the abundance fitness read?
A: Its abundance fitness is -0.316 ± 0.077.

Q: Which abundance fitness does the source give for “Scaffold attachment factor B2 L38C, Q14151” here?
A: Its abundance fitness is -0.532 ± 0.1.

Q: With “Scaffold attachment factor B2 L38D, Q14151” as the substance, how does the abundance fitness read?
A: The abundance fitness was -0.746 ± 0.11.
